Measurements from the DeepSol protein solubility set.

Assay: soluble on expression in E. coli; label from the status in PepcDB or PDB records

Sequence	soluble on expression in E. coli
MGSDKIHHHHHHMSEQNLIEVRDLAVEFVTGDQVNRVVDGVSFDIRKGETLALVGESGSGKSVTAHSILRLLPYPLARHPSGSIRYEGKDLLQQSEKTLQRIRGNRIAMIFQEPMTSLNPLHCIEKQINEILLLHKGLTGKEATARTLELLDMVGIPEPRKRLKALPHELSGGQRQRVMIAMALANEPELLIADEPTTALDVTVQLKILELLKELQARMGMALLLISHDLNLVRRIAHRVCVMQRGQIVEQAECATLFSSPQHHYTQMLINAEPSGLPAHNPVGAPLLEVDDLKVWFPIKKGFLQRTVDHVKAVDGVNFSLPQGQTLGIVGESGSGKSTLGLAILRLISSQGGIRFHGQNLEGLNQKAVRPLRREMQVVFQDPFGSLSPRMCVADIVGEGLRIHRIGTAQEQEAAIIAALEEVGLDPRTRHRYPHEFSGGQRQRIAIARALVLKPALILLDEPTSALDRTVQRQVVELLRNLQQKYNLTYLFISHDLAVVKALSHQLMVIKHGHVVEQGDAQAIFHAPQHPYTRQLLEAAFLEVGG	not soluble
MSLHRLASLPGGWTPAMEGVIIVEQTPAPLIFLTAADTDIQAIARVWPRLPGDFPDLRVCNLLNLQQSFSLDDYGDRVLGQAEVIVVRLLGGKSYWPYGLEVLGELTVTKPDLKLFVLPGDDRPDPSLMNQSTVPLTAVHCLWQYFAEGGTDNIRHGLMWLGDYGFGRNYRPPAPQMVPKVGIYRPEGHHHHHH	soluble
MSLQVFGVSRSGYYNWVQHEPSDRKQSDERLKLEIKVAHIRTRETYGTRRLQTELAENGIIVGRDRLARLRKELRLRCKQKRKFRATTNSNHNLPVAPNLLNQTFAPTAPNQVWVADLTYVATQEGWLYLAGIKDVYTCEIVGYAMGERMTKELTGKALFMALRSQRPPAGLIHHSDRGSQYCAYDYRVIQEQFGLKTSMSRKGNCYDNAPMESFWGTLKNESLSHYRFNNRDEAISVIREYIEIFYNRQRRHSRLGNISPATFREKYHQMAAEGHHHHHH	not soluble
GHMSESREARLIIFHAGSLSIPLSQVEEKFTKYAQEKLGVKVTFQDEASGSVKAVRKVTDLKKRADIVAVADYTLIPQLMIPNYTDFYVLFATNEIVIAFTNKSKYADEMLKNPDKWYEILSRPDVSFGFSDPNQDPCGYRSVMVMKLAELYYGRPIFKELVEKTTNIYSNGTRIYAPKEIIIKDKRVIMRPKETDLVGLVESGSLDYIFIYKSVAKQHHLSYITLPDDINLGDFNKADFYGRVSITLGSTGKTIKAKPIVYGITVLKNAPNRELAIEFLRFLLGNEGRKIFEDNYQEFLSPPVAFGNVPPEIRRLVEVK	soluble
MGSDKIHHHHHHMSPEPNGDAVSIILETEGPMTAAPKTVRSVERTLQILELMNRAAVVRVQYLAEQIGLPAPTVVRLLETLVAAGYVRKIGRQAGYCVTEKVAALGAGHHGLPQVFDVAREAAEDLTRRTLWPTALATLDVDALVIRFSTIPMSPLSHYQSTINRRMTLLDYAHGRAYLGFCPTEERQHLVALLQQTAGSVEEARAIGERAQSVVALTRASGFGERTGNIQPETHSLALPLRMGAKLVGTLGITYFAKAKVDVSALKSDLRAAAEACTSGTAYRAPASSG	not soluble
MLTFALTIVRAGETQYNRDKLLQGQGIDTPLSDTGHQQAAAAGRYLKDLHFTNVFVSNLQRAIQTAEIILGNNLHSSATEMILDPLLRERGFGVAEGRPKEHLKNMANAAGQSCRDYTPPGGETLEQVKTRFKMFLKSLFQRMFEEHGSALSSVPSEADQPVIAGLADDGAQNVPVHALMVSHGAFIRISVRHLVEDLQCCLPAGLKMNQVFSPCPNTGISRFIFTIHREESVLRATRIQGVFINRKDHLEEVKNSDLEHHHHHH	soluble
MIGSGSQRKIGIVIKALLDQAEELDIINKNKIRCTDIPRQGKAERRYLTIRGIDRLLAAAIPMNEVALMRNVLLFTGLRPREAKGLKVKDLDPMRGRLSIRRDVDDLGNPDETKTRNHRGVPIGGDLLFDLDDQAEGKQPHDWLLTDETGHV	not soluble
MPQPESENLSVKLFKNHKQALETSGLVPYLPSSLEQLEQSGRTWYRELRRPQWIWQGVDAIELESILARIANSQKHRSRDEWLDTVSGYHSGNWAYEWIHAGMEHQKTASELDGDEAAEAYFKASLYFSVAGYPHIKGDNLAIQSQVLASQAYDMAAKQTSHRVEKILVPYQGRKITCYLHLPNTEKPLPVVIVSGGMDSLQTDMWRLYRDFLAPNNMAMLTLDMPSIGHSSHWPLSEDSSCLHQAVLNYLPNIPWVDRFHAAVMGFRFGGNVALRLSFLEPSRLKACVALGAPVHQILTNSARLKTMPKMYLDVLASRLAKQVVDINSLTSQMQAWSLKNQGFLSGGRKTSVSVLAIGLKDDPVSPKSDNKLAALFSKYGKGVELNSKTLHSGYEEALKQMIEWIKEEMKQ	not soluble
MTENAPKFKQISAEIEKKIRDGLYVSAQKLPSEYDLAKEYNCSRLTIRKAIDDLIRKNILVKRHGKGSYVMSQAKIQSGRAGLQGFTEAAKAYGKKSQTEVISFEEVVHPAEKIREALQVGKNEAIYELIRRRMLDGEPMTVEKIYLPQAYVQGHTKQDFEGSLFCLIEKNVEIAYSHQEIEAILVEAEISELLNVPVGQPLLQVHSITYALDATPILYDVSLYRADRYTFKNTLTRYSPSENNQVELGGSWNE	not soluble
MIVNRNPFEQLPSLAINPEDFDVLYSAETFRTRLLDAISKATSRIYLVALYLEDDEAGREILTALYEAKQRNPGLDINICVDWHRAQRGLIGAETSEGNSALYKAFADQYQHAIPVYGIPVRGREVFGVLHLKGFVVDDTVIYSGASLNNVYLQYHGRYRFDRYHVIKHKSLADTMVNFVQNEMIAHPAVNDLADRDKPETKEIKSAIRQLRSSLAQANYQFAHEAAAEDKVKITPLVGLGKRRNLLNQQIVKLLAAAQNEIFICTPYFNFPKSIHREVKRAMKRGVKVTIVVGDKTANDFYISPEEDFKTIGGLPYLYEVNLRRFAKANEANIAARKLSVHLWKHENNSFHLKGIWVDKRYMLLTGNNLNPRAWSLDLENGLLIQDDYANLTHKFEDEVARILEHTQLICTYKQLEKVEDYPLAVQKLVRKITRLKADGVLKRILLEHHHHHH	soluble
MGSDKIHHHHHHMSSQTTALNSGVHAKKADIFCQDEARVDWHSKALWVLREKRDRAAASLPEWEQLRQLGSEMKLHTLTHLGEYLETFEKNCQANGIVVHWAKDGAEHNQIVHNILAKHQVKKLVKSKSMLTEECHLNPYLESKGIEVIDTDLGERIIQLAKQPPSHIVVPAIHLKKEEVGDLFHDKLGTEAGASDPLYLTRAARAHLREQFLSADAAMTGVNMAIADKGAVVVCTNEGNADMGANLPKLQLHSMGIDKIVPDLDSAAILLRTLARNATGQPITTYSSFYRGPQDGGEMHVIIVDNGRTDMLQDKILAESLKCIRCGGCLNTCPVYRRSGGYSYNYTIPGPIGIAVGAQADDTHSIPWACTLCGSCSYVCPTKVPLDKIIHHHRRLKAKAGKLPYGKRNYMPLVGNFMASETMLNCSMSVARTALRILPGSLLKPFSGAWGKYRELPVAPKSSFEAWFNKNRGQ	not soluble
MGSDKIHHHHHHMRKINMMTTFECRVHTLEFDENYQPEMQSTRLTTNFANLARGENRKENLQNVIAMIDKRFNDLANWDNPTNDRYSVKLEIVSIDIDMEGKGKFFPALEWLKTYVIDHKTGKRIDGIVGNNFSSFVRDYDFSVLLLEHNRNKEEFTVPKGYGELHGKLFKYLLTSSAYKEKYSKPPVICLSVATTRTYRRTTNVHPILGVEYHQDNYSLTDEYFAKMGLSVRYFMPPKSVAPYAFYFDSNSDLLNDYTNLELISTIATMEAFQKIYRPEIYNANSVAGQVYKGSLTYQDYSVTKVEYDRVERTQLAIKQGKYTEAHFIKPYKAILDAWMAEK	not soluble
MSIRSGSRRLELPHLSFPGLLRMNIHKNARLTPLRREEMAVAVFGGRLTKAQAARLYGVSLKIVSRWTERFRISGRAAMTDRSSRPTRSPRQMGQDIVERILHLRRQRLTGKHIAMETGVSPATVSRILRRAKLSRMKDIDPVEPVIRYEYAEPGGLIHLDIKRLGRFERVGHRITGNRTRQSNTRGVGWEYVHVCIDDVSRIAFTDIFPDEKAIMPLEHHHHHH	not soluble
MSEEDKAKKLENLLKLLQLNNDDTSKFTQEQKKAMKDHKFWRTQPVKDFDEKVVEEGPIDKPKTPEDISDKPLPLLSSFEWCSIDVDNKKQLEDVFVLLNENYVEDRDAGFRFNYTKEFFNWALKSPGWKKDWHIGVRVKETQKLVAFISAIPVTLGVRGKQVPSVEINFLCVHKQLRSKRLTPVLIKEITRRVNKCDIWHALYTAGIVLPAPVSTCRYTHRPLNWKKLYEVDFTGLPDGHTEEDMIAENALPAKTKTAGLRKLKKEDIDQVFELFKRYQSRFELIQIFTKEEFEHNFIGEESLPLDKQVIFSYVVEQPDGKITDFFSFYSLPFTILNNTKYKDLGIGYLYYYATDADFQFKDRFDPKATKALKTRLCELIYDACILAKNANMDVFNALTSQDNTLFLDDLKFGPGDGFLNFYLFNYRAKPITGGLNPDNSNDIKRRSNVGVVML	soluble
MRGSHHHHHHTDPALRAQDAAPRLTFTLRDEERLMMKIGVFVPIGNNGWLISTHAPQYMPTFELNKAIVQKAEHYHFDFALSMIKLRGFGGKTEFWDHNLESFTLMAGLAAVTSRIQIYATAATLTLPPAIVARMAATIDSISGGRFGVNLVTGWQKPEYEQMGIWPGDDYFSRRYDYLTEYVQVLRDLWGTGKSDFKGDFFTMNDCRVSPQPSVPMKVICAGQSDAGMAFSARYADFNFCFGKGVNTPTAFAPTAARMKQAAEQTGRDVGSYVLFMVIADETDDAARAKWEHYKAGADEEALSWLTEQSQKDTRSGTDTNVRQMADPTSAVNINMGTLVGSYASVARMLDEVASVPGAEGVLLTFDDFLSGIETFGERIQPLMQCRAHLPALTQEVAGLCGR	soluble
MNCRPGCGACCIAISISSPIPGMPRGKPAGVPCVQLRDDMECAIFGRPERPACCSGLRPSDEMCGGDRSHAMTWLARLEQATLPAAENTPHRPPLEHHHHHH	not soluble
MAHHHHHHMSAARDDSAPCAVPSTLWRECLKQYDYGPDRPKGACEAHRTKFYDCVKDWTARTQHKSYSYTQFELPKSCGHEAEKLHQCMMMNMFEVGHCQRDMAVLKRCAARVDPEVRKYLQDDEAIADLENDIDEATGLKRLWYKVIGKL	soluble
MSYLDTATDLPNQTLFLEYLNIALSNARRHHAQVGVLLCQINNWSDLKRKRGDAVANAFLQEAGQKLKSNLRNGDIVSRWDKDEFIFLVSKVQDTSSLLGIAQRLMKPVLAPVTAGGRPFQPEITYGVALYPVDGEQVNDLIGHIRENLQQLLPQPTLEHHHHHH	not soluble
MCTVSLCVSLCLWMHNETVQVAMALEFKDKWLEQFYEDDKRHRLIPSSIENALFRKLEILDAAQAESDLRIPPGNRFEHLEGNLKGWCSIRVNKQYRLIFQWVDGVALNTYLDPHKY	not soluble
MAFEFKLPDIGEGIHEGEIVKWFIKPGDEVNEDDVLLEVQNDKAVVEIPSPVKGKVLEVLVEEGTVAVVGDTLIKFDAPGYENLKFKGDDHDEAPKAEATPAATAEVVNERVIAMPSVRKYARENGVDIHKVAGSGKNGRIVKADIDAFANGGQAVAATEAPAAVEATPAAAKEEAPKAQPIPAGEYPETREKMSGIRKAIAKAMVNSKHTAPHVTLMDEVDVTELVAHRKKFKAVAADKGIKLTYLPYVVKALTSALREYPMLNTSLDDASQEVVHKHYFNIGIAADTDKGLLVPVVKDTDRKSIFTISNEINDLAGKAREGRLAPAEMKGASCTITNIGSAGGQWFTPVINHPEVAILGIGRIAEKPVVKNGEIVAAPVLALSLSFDHRLIDGATAQKALNQIKRLLNDPQLLVMEA	not soluble
MSKEYHIRELIMRLARLDVSESWAEDLNPAQRAVLEYLSRANKFSRSPSHVAAFLGTTRGTISQTFKALLQKNYVTEKRSQSDKRVISFDLTQKGRALLARPRLLISGLESLDSSEQNALLSTLQSTLNSLLEQNKGQPFGLCKECRHFTSSNGGGYCNLLSEKLAPPETEQICHEQDPL	not soluble
